Test results reported in publication PMC11555717 (Cancer Medicine, 2024).

How the values were obtained:
[1] = EV-203 pharmacokinetics of ADC, TAb and free MMAE in serum or plasma; assay type: in vivo, human; conditions: for Serum concentration at end of infusion / AUC0–7d / C max: mean (SD); for AUC0–7d: 1.25 mg/kg IV
Description: (§1) In the PK cohort (i.e., PK analysis set), intensive PK sampling was performed wherein blood samples for analysis of ADC, total antibody (TAb), and free (unconjugated) MMAE were collected at prespecified time points. […] Blood samples for antitherapeutic antibodies (ATAs) were collected predose on Day 1 of cycles 1 to 4, 6, 8, 10, and within 30–37 days after the last study dose. Validated assays were used to measure concentrations of ADC, TAb, and free MMAE in serum or plasma and to assess ATA levels.
All patients who received any amount of study drug were included in the primary analyses of efficacy endpoints and safety analyses. The PK analyses included data from patients in the PK cohort who received at least 3 of 4 doses of the study drug through cycle 2 Day 1 and had at least five blood samples collected and assayed for measurements of ADC, TAb, or free MMAE concentrations to determine at least one PK parameter.

[2] = EV-203 immunogenicity: antitherapeutic antibodies (ATAs) against enfortumab vedotin; assay type: in vivo, human; conditions: 38 participants tested
Description: as §1
Secondary endpoints were confirmed ORR by investigator assessment; DOR, disease control rate (DCR), and progression‐free survival (PFS) by IRC and investigator assessments; OS; incidence of ATAs to ADC; and safety/tolerability. PFS was defined as the time from the start of the study treatment to the first documentation of objective tumor progression (i.e., progressive disease per RECIST version 1.1) by IRC or investigator assessment (whichever was specified) or to death due to any cause, whichever came first. OS was defined as the time from the start of study treatment to the date of death due to any cause. […] Data for treatment‐related AEs (TRAEs) were evaluated by the investigator.

[3] = system: patients with locally advanced or mUC previously treated with platinum-based chemotherapy and PD-1/L1 inhibitors; conditions: cited from earlier work
[4] = system: patients with previously treated locally advanced or mUC; conditions: EV-301; cited from earlier work
[5] = serum, Cycle 1 Day 1, PK cohort
[6] = serum, Cycle 1 Day 15, PK cohort

enfortumab vedotin: fully human monoclonal ADC directed to Nectin-4, delivering intracellular monomethyl auristatin E (MMAE) to tumor cells
Serum concentration at end of infusion ([1]; cycle 1 Day 1, Non-PK cohort): 25,300 (3830) [23] ng/mL
Serum concentration at end of infusion ([1]; cycle 1 Day 1, PK cohort): 27,700 (4410) [13] ng/mL
Serum concentration at end of infusion ([1]; cycle 1 Day 8, Non-PK cohort): 24,900 (5400) [17] ng/mL
Serum concentration at end of infusion ([1]; cycle 1 Day 8, PK cohort): 27,400 (4390) [12] ng/mL
Serum concentration at end of infusion ([1]; cycle 1 Day 15, Non-PK cohort): 22,000 (5980) [11] ng/mL
Serum concentration at end of infusion ([1]; cycle 1 Day 15, PK cohort): 27,500 (3820) [10] ng/mL
AUC0–7d [1, 5]: 32.4 (6.2) day μg/mL
C max [1, 5]: 28.1 (4.52) μg/mL
AUC0–7d [1, 6]: 36.5 (7.9) day μg/mL
C max [1, 6]: 27.6 (4.01) μg/mL
Time of peak serum concentration ([1]; serum, PK cohort cycle 1): at the end of the enfortumab vedotin infusion
Incidence of positive ATAs postbaseline [2]: 0%
Median duration of response (DOR) ([3]; EV-201): 7.6 months
Objective response rate (ORR) ([3]; EV-201 cohort 1 (n = 125)): 44%
Median OS [4]: 12.88 months
Median PFS [4]: 5.6 months
Probability of OS at 6 months [4]: approximately 80%
